# Measurements as given in patent US20230181756A1 (Novartis, published 2023).
# Like-named read-outs stand apart in the source and are kept apart here.
# T1: human CCR7 (human, UniProt P32248 25-378)
# T1 sequence: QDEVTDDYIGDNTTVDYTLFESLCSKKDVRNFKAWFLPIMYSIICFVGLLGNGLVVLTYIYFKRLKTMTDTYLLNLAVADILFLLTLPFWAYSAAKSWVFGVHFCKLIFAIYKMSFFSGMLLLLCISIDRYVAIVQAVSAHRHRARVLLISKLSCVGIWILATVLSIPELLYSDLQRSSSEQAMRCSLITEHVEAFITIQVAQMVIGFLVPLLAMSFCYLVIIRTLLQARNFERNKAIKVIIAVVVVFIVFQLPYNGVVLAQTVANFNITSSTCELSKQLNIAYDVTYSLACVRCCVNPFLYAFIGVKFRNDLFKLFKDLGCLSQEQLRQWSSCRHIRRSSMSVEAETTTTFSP
# T2: mouse CCR7 (mouse, UniProt P47774 25-378)
# T2 construct: also called NIH3T3.mouse CCR7
# T2 sequence: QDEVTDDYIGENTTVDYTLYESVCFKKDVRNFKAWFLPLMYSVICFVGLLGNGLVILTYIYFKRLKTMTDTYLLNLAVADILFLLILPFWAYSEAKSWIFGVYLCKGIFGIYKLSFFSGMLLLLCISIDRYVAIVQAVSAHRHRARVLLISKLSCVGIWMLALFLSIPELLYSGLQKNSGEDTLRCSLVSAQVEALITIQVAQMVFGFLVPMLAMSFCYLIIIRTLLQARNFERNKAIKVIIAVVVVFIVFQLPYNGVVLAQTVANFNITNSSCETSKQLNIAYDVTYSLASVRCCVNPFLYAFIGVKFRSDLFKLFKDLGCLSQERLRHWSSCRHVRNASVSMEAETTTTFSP
# T3: rat CCR7 (rat, UniProt P47774 25-378 (mouse entry))
# T3 construct: also called NIH3T3.rat CCR7
# T3 chain: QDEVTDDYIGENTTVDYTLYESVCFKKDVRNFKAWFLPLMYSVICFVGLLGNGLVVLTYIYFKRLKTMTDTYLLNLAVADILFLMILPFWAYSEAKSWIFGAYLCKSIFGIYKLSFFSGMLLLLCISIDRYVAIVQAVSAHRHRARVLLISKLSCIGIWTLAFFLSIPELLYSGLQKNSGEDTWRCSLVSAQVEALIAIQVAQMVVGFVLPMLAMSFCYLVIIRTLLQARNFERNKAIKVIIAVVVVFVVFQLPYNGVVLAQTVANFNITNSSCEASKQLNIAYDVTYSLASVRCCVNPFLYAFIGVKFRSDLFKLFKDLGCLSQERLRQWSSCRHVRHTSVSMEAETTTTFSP
# T4: cynomolgus monkey CCR7 (cynomolgus monkey, UniProt P32248 25-378 (human entry))
# T4 construct: also called Cyno CCR7; NIH3T3.cyno CCR7
# T4 sequence: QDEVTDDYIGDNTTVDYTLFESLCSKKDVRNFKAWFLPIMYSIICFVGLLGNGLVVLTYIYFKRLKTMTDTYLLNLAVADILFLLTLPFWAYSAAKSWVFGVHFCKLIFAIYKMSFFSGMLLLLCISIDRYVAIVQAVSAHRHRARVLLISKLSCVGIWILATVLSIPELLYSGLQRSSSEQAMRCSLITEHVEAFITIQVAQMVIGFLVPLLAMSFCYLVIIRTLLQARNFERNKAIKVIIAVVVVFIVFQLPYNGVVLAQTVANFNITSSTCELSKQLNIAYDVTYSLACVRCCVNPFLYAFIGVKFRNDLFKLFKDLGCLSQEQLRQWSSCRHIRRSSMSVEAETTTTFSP
# T5: recombinant hCCR7 (Origene #TP306614) (human, UniProt P32248 25-378, limits assumed)
# T5 construct: Bought protein coated on ELISA plates; also called recombinant CCR7
# T5 sequence (looked up): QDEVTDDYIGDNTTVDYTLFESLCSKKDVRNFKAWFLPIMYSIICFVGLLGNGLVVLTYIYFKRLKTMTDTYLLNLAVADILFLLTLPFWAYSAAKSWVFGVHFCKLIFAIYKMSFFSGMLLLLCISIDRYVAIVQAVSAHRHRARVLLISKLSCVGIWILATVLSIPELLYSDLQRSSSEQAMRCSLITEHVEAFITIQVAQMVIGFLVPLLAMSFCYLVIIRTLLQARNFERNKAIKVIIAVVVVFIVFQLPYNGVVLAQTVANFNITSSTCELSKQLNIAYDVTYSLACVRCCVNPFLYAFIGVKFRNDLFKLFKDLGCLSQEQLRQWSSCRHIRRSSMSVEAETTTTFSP
# T6: CCR9 (UniProt P51686 1-369, limits assumed)
# T6 construct: whole, on cells; also called PF382 cells (CCR7-/CCR9+/CCR6+)
# T6 sequence (looked up): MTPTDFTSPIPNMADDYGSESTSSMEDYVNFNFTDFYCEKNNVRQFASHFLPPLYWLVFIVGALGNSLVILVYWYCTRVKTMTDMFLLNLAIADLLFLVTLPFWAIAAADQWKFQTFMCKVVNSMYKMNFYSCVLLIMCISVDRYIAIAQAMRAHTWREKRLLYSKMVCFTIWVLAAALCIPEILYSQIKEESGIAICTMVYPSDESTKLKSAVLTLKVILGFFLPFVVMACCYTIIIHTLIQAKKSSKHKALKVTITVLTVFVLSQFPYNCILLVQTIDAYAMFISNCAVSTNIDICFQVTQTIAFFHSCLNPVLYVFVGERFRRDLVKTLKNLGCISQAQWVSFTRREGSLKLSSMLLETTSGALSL
# T7: CCR6 (UniProt P51684 1-374, limits assumed)
# T7 construct: whole, on cells; also called PF382 cells (CCR7-/CCR9+/CCR6+)
# T7 sequence (looked up): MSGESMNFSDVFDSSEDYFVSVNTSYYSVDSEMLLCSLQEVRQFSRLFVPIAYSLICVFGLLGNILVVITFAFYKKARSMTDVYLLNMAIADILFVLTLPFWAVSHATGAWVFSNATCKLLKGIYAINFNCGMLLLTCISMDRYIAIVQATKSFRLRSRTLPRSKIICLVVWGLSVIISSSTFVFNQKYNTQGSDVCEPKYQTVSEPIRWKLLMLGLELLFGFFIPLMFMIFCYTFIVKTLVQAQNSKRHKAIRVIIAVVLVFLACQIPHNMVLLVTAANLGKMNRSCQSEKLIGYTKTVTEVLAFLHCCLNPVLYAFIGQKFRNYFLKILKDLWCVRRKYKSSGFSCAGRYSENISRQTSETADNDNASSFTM
# Experiments:
# human CCR7 [1] = target: T1, human CCR7; assay: cell-based or functional assay
# mouse CCR7 = target: T2, mouse CCR7; assay: FACS titration, CD-1 mouse CD4+ T cells
# rat CCR7 = target: T3, rat CCR7; assay: FACS titration, Wistar rat CD4+ T cells
# cynomolgus monkey CCR7 [2] = target: T4, cynomolgus monkey CCR7; assay: FACS titration, cynomolgus CD4+ T cells
# human CCR7 [3] = target: T1, human CCR7; assay: FACS titration, human CD4+ T cells from PBMC
# human CCR7 [4] = target: T1, human CCR7; assay: cell-based or functional assay; remark: listed apart in the source
# human CCR7 [5] = target: T1, human CCR7; assay: FACS titration, DEL cancer cells (receptor density ~100,000)
# human CCR7 [6] = target: T1, human CCR7; assay: FACS titration, human CD4+ T cells (receptor density <2,000)
# [7] = target: T5, recombinant hCCR7 (Origene #TP306614); assay: ELISA, recombinant CCR7 coated at 3.5 ug/ml, antibody titrated
# human CCR7 [8] = target: T1, human CCR7; assay: FACS titration, NIH3T3.hCCR7 cells (receptor density >1,000,000)
# CCR8 = target: T8, CCR8 (UniProt P51685 1-355, limits assumed); assay: FACS on CHO-CCR8 cells
# T8 construct: whole, on cells; also called CHO-CCR8
# CXCR4 = target: T9, CXCR4 (UniProt P61073 1-352, limits assumed); assay: FACS on HEK293-CXCR4 cells
# T9 construct: whole, on cells; also called HEK293-CXCR4
# CCR9 = target: T6, CCR9; assay: FACS on PF382 cells (CCR7-/CCR9+/CCR6+)
# CCR6 = target: T7, CCR6; assay: FACS on PF382 cells (CCR7-/CCR9+/CCR6+)
# cynomolgus monkey CCR7 [9] = target: T4, cynomolgus monkey CCR7; assay: FACS titration, cynomolgus CD4+ T cells; remark: listed apart in the source
# human CCR7 [10] = target: T1, human CCR7; assay: FACS titration, human CD4+ T cells from PBMC; remark: listed apart in the source
# human CCR7 [11] = target: T1, human CCR7; assay: ELISA on CCR7-expressing VLPs, pH 5.8 buffer
# human CCR7 [12] = target: T1, human CCR7; assay: ELISA on CCR7-expressing VLPs, pH 7.4 buffer
# human CCR7 [13] = target: T1, human CCR7; assay: FACS titration, NIH3T3 cells expressing human CCR7
# T8 sequence (P51685 whole entry): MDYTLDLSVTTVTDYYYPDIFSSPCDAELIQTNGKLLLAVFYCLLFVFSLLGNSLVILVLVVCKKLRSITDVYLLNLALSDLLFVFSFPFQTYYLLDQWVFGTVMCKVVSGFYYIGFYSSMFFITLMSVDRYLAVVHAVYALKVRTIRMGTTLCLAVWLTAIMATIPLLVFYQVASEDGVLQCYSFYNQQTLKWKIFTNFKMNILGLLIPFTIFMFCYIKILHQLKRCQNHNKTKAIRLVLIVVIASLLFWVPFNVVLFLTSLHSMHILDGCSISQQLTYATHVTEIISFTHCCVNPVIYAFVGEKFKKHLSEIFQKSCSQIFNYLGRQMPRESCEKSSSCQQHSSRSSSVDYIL
# T9 sequence (P61073 whole entry): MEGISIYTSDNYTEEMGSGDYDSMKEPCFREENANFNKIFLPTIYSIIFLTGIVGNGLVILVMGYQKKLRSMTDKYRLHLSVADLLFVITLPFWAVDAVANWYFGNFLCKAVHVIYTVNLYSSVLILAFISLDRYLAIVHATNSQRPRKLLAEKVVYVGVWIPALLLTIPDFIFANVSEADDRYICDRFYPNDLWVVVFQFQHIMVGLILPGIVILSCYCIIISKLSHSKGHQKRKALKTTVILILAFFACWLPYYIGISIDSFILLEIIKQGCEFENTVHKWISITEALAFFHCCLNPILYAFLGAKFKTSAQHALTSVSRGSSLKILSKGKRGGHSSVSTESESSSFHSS
Binder,"ADCC activity; IC50 (nM); reporter assay, JVM2 targets and Jurkat-V158 effectors (human CCR7 [1])",binding result (mouse CCR7),binding result (rat CCR7),EC50 (cynomolgus monkey CCR7 [2]),EC50 (human CCR7 [3]),binding result (CCR8),binding result (CXCR4),binding result (CCR9),binding result (CCR6),EC50 (cynomolgus monkey CCR7 [9]),Kd (human CCR7 [11]),Kd (human CCR7 [12]),other results
"506E15 non-humanized CysMab (antibody, human IgG1, kappa, V domains shown, Chimeric human IgG1 kappa with CysMab cysteines and wild type Fc; also called Parental 506E15 hIgG1 CysMab; Non-humanized CysMab antibody 506E15) VH: EVMLVESGGGLVKPGGSLKLSCAASGFTFSSYAMSWIRQTPEKRLEWVATISSGGSFTYYPDSVKGRFTISRDNVKNTLYLQMSSLRSEDTAMYYCARRASTVVGTDFDVWGAGTTVTVSS VL: DIQMTQSPSSLSASLGERVSLTCRASQDIGSSLNWLQQEPDGTIKRLIYATSSLDSGVPKRFSGSRSGSDYSLTISSLESEDFVVYYCLQYASSPPTFGGGTKLEIKR",0.131 nM,no binding,no binding,6.6 nM,4.6 to 9.7 nM,–,–,–,–,–,–,–,–
"Humanized 506E15.CysMab.DAPA (antibody, human IgG1, kappa, V domains shown, Human IgG1 kappa with D265A/P329A and CysMab cysteines; also called 506E15 (Humanized CysMab DAPA)) VH: EVQLVESGGGLVKPGGSLRLSCAASGFTFSSYAMSWIRQAPGKGLEWVATISSGGSFTYYPDSVKGRFTISRDNAKNSLYLQMNSLRAEDTAVYYCARRASTVVGTDFDVWGQGTTVTVSS VL: DIQMTQSPSSLSASVGDRVTLTCRASQDIGSSLNWLQQKPGKAIKRLIYATSSLDSGVPSRFSGSRSGTDYTLTISSLQPEDFVVYYCLQYASSPPTFGGGTKLEIKR",–,–,–,–,–,–,–,–,–,–,–,–,"pHrodo (6 h MFI), internalization, CD4+ T cells (receptor numbers 2000) (human CCR7 [4]): 429 MFI; pHrodo (6 h MFI), internalization, CMLT1 cells (receptor numbers 19583) (human CCR7 [4]): 465 MFI; pHrodo (6 h MFI), internalization, DEL cells (receptor numbers 110685) (human CCR7 [4]): 3060 MFI; pHrodo (6 h MFI), internalization, JVM3 cells (receptor numbers 8717) (human CCR7 [4]): 238 MFI; pHrodo (6 h MFI), internalization, Jeko-1 cells (receptor numbers 28852) (human CCR7 [4]): 908 MFI; pHrodo (6 h MFI), internalization, KE97 cells (receptor numbers 152093) (human CCR7 [4]): 2720 MFI; pHrodo (6 h MFI), internalization, L540 cells (receptor numbers 167549) (human CCR7 [4]): 16100 MFI; pHrodo (6 h MFI), internalization, L1236 cells (receptor numbers 61602) (human CCR7 [4]): 3130 MFI; pHrodo (6 h MFI), internalization, MJ cells (receptor numbers 111121) (human CCR7 [4]): 3870 MFI; pHrodo (6 h MFI), internalization, MOTN1 cells (receptor numbers 84200) (human CCR7 [4]): 2900 MFI; pHrodo (6 h MFI), internalization, Mec2 cells (receptor numbers 50840) (human CCR7 [4]): 3090 MFI; EC50 (human CCR7 [5]): 3.09 nM; EC50 (human CCR7 [6]): ~10 nM; Kd [7]: 5.73 nM; EC50 (human CCR7 [8]): 1.8 nM"
"506E15 humanized CysMab (Fc Wild Type) (antibody, V domains shown, Human IgG1 kappa with CysMab cysteines; also called Humanized CysMab antibody 506E15) VH: EVQLVESGGGLVKPGGSLRLSCAASGFTFSSYAMSWIRQAPGKGLEWVATISSGGSFTYYPDSVKGRFTISRDNAKNSLYLQMNSLRAEDTAVYYCARRASTVVGTDFDVWGQGTTVTVSS VL: DIQMTQSPSSLSASVGDRVTLTCRASQDIGSSLNWLQQKPGKAIKRLIYATSSLDSGVPSRFSGSRSGTDYTLTISSLQPEDFVVYYCLQYASSPPTFGGGTKLEIK",0.054 nM,–,–,–,–,no binding (tested: 5 ug/ml),no binding (tested: 5 ug/ml),no binding (tested: 5 ug/ml),no binding (tested: 5 ug/ml),7 nM,0.494 nM,0.0571 nM,EC50 (human CCR7 [10]): 7.8 to 11 nM
"674J13 non-humanized CysMab (antibody, human IgG1, kappa, V domains shown, Chimeric human IgG1 kappa with CysMab cysteines and wild type Fc; also called Parental 674J13 hIgG1 CysMab; Non-humanized CysMab antibody 674J13) VH: DVQLQESGPDLVKPSQSLSLTCTVTGYSITSGYSWHWIRQFPGNKLEWMAHIHSSGSTNYNPSLKSRISIIRDTSKNLFFLQLNSVTTEDTATYYCARGGVQAFAYWGQGTLVTVSA VL: QIVLTQSPAIMSASPGEKVTMTCSASSSVIYMHWYQQKSGTSPKRWIYDTSKLASGVPARFSGSGSGTSYSLTISSMEAEDAATYYCQQWSSNPLTFGAGTTLELKR",1.09 nM,no binding,no binding,0.45 nM,0.39 to 1.4 nM,–,–,–,–,–,–,–,EC50 (human CCR7 [13]): 3.6 nM
"674J13 humanized CysMab (Fc Wild Type) (antibody, V domains shown, Human IgG1 kappa with CysMab cysteines; also called Humanized CysMab antibody 674J13) VH: DVQLQESGPGLVKPSQTLSLTCTVSGYSITSGYSWHWIRQHPGKGLEWMAHIHSSGSTNYNPSLKSRITISRDTSKNQFSLKLSSVTAADTAVYYCARGGVQAFAYWGQGTLVTVSS VL: EIVLTQSPATLSASPGERVTMSCSASSSVIYMHWYQQKPGQAPRRWIYDTSKLASGVPARFSGSGSGTDYTLTISSMEPEDAAVYYCQQWSSNPLTFGQGTKLEIK",–,–,–,–,–,no binding (tested: 5 ug/ml),no binding (tested: 5 ug/ml),no binding (tested: 5 ug/ml),no binding (tested: 5 ug/ml),0.5 nM,0.166 nM,0.0162 nM,–
